Ends that are not written are not given here.
Experiments:
[1] = biological target: T1, PL37 in multiple antigenic peptide form (human, also: multiple antigenic peptide form, core and copy number not given here, abstract and print the sequence differently); experiment: SPR (Biacore), PL37-MAP amine-coupled to CM5 chip, peptide as analyte
T1 construct: PL37 is the fragment aa 37-53 of C5a anaphylatoxin; The assays used the MAP form; its core and valency are not described; also called PL37-MAP
T1 peptide: RAARISLGPRCIKAFTE
Protocol: (§1) FIG. 1. Binding of C-peptides to immobilized PL37-MAP and C5a using Biacore equipment. An overlay plot of response curves obtained from the Biacore instrument when various concentrations of Pep-A and Pep-B were injected. All samples were injected at time 0, and the association was monitored as an increase in RU. a, Various concentrations of Pep-A were injected over the PL37-MAP-coupled flow cell. b, The same concentrations of Pep-B were also injected over the PL37-MAP-coupled flow cell. c, Pep-A was injected over the C5a-coupled flow cell at the same concentrations of Pep-A as in FIG. 1a. d, The same concentrations of Pep-B were also injected over the C5a-coupled flow cell.
Binding interactions between PL37 or C5a with C-peptides were evaluated using surface plasmon resonance (SPR) technology with the Biacore system. PL37 and C5a were covalently immobilized on the CM5 sensor chip by amine coupling methods using N-ethyl-N-(dimethylaminopropyl)carbodiimide/N-hydroxysuccinimide (EDC/NHS) according to the manufacturer's instructions. […] Binding interactions were determined by passing samples simultaneously over both the EA-blocked cell and the flow cell with immobilized PL37 or C5a so as to obtain units of resonance response (RU) by subtraction of the background using Biacore software (BIA evaluation). […]

recombinant human C5a = biological target: T2, recombinant human C5a (human, UniProt P01031 678-751); experiment: SPR (Biacore), C5a amine-coupled to CM5 chip, peptide as analyte
T2 construct: domain: C5a anaphylatoxin (74-amino acid peptide); The calcium assay names recombinant human C5a; The SPR section says only 'C5a'; C5a is a 74-residue fragment of it; also called RhC5a; C5a anaphylatoxin
T2 sequence (looked up): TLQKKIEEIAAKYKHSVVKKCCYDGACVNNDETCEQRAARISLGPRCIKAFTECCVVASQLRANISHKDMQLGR
Protocol: as §1
Binding interactions between PL37 or C5a with C-peptides were evaluated using surface plasmon resonance (SPR) technology with the Biacore system. PL37 and C5a were covalently immobilized on the CM5 sensor chip by amine coupling methods using N-ethyl-N-(dimethylaminopropyl)carbodiimide/N-hydroxysuccinimide (EDC/NHS) according to the manufacturer's instructions. […] Binding interactions were determined by passing samples simultaneously over both the EA-blocked cell and the flow cell with immobilized PL37 or C5a so as to obtain units of resonance response (RU) by subtraction of the background using Biacore software (BIA evaluation).

B1: Peptide-B (peptide)
peptide: ASTAPARAGLPRLPKFF
notes: Synthetic 17-residue complementary peptide designed with MIMETIC against PL37; also called Pep-B; C-peptide B
- binding result [1]: no binding
- binding result (recombinant human C5a): no binding

Source: patent US20060063701A1 (INSTITUTE FOR PROTEIN SCIENCE, published 2006)
